{"source": "patent US20110014200A1", "key": {"[1]": {"target": "wild-type human thyrotropin receptor (TSHR) (human) (UniProt P16473)", "experiment": "cell-based or functional assay"}, "[2]": {"target": "gain-of-function TSHR mutant I486F (human) (UniProt P16473)", "experiment": "cell-based or functional assay"}, "[3]": {"target": "gain-of-function TSHR mutant A623I (human) (UniProt P16473)", "experiment": "cell-based or functional assay"}, "[4]": {"target": "gain-of-function TSHR mutant I568T (human) (UniProt P16473)", "experiment": "cell-based or functional assay"}, "[5]": {"target": "gain-of-function TSHR mutant S281I (human) (UniProt P16473)", "experiment": "cell-based or functional assay"}, "[6]": {"target": "wild-type human thyrotropin receptor (TSHR) (human) (UniProt P16473)", "experiment": "inhibition of 125I-TSH binding to monolayers of cells expressing human TSHR"}}, "data": [{"substance": "monoclonal antibody CS-17 (produced by hybridoma CS-17, ATCC accession number PTA-8174)", "values": [{"measurement": "CS-17 concentration producing half-maximal inhibition (IC50) of constitutive cAMP", "setting": "[1]", "value": 1, "unit": "µg/mL"}, {"measurement": "half maximal inhibitory concentration for TSHR constitutive activity (intracellular cAMP)", "setting": "[1]", "value": 6.7, "unit": "nM"}, {"measurement": "inverse agonist activity at 10 µg/ml (percent)", "setting": "[1]", "value": "60 to 90", "unit": "%"}, {"measurement": "reduction of constitutive activity at 10 µg/ml (percent)", "setting": "[1]", "value": "> 60", "unit": "%"}, {"measurement": "CS-17 concentration producing half-maximal inhibition (IC50) of constitutive cAMP", "setting": "[2]", "value": 1, "unit": "µg/mL"}, {"measurement": "CS-17 concentration producing half-maximal inhibition (IC50) of constitutive cAMP", "setting": "[3]", "value": 1, "unit": "µg/mL"}, {"measurement": "CS-17 concentration producing half-maximal inhibition (IC50) of constitutive cAMP", "setting": "[4]", "value": 1, "unit": "µg/mL"}, {"measurement": "CS-17 concentration producing half-maximal inhibition (IC50) of constitutive cAMP", "setting": "[5]", "value": 1, "unit": "µg/mL"}, {"measurement": "percent suppression of TSH binding at 10 µg/ml", "setting": "[6]", "value": 35, "unit": "%"}]}]}
